We go through one molecule from article PMC7959165 (Molecular cell, 2020).

The assay has as its target E. coli RNAP σ^70 (E. coli, UniProt P00579 1-613).

Chain of E. coli RNAP σ^70 (P00579 whole entry): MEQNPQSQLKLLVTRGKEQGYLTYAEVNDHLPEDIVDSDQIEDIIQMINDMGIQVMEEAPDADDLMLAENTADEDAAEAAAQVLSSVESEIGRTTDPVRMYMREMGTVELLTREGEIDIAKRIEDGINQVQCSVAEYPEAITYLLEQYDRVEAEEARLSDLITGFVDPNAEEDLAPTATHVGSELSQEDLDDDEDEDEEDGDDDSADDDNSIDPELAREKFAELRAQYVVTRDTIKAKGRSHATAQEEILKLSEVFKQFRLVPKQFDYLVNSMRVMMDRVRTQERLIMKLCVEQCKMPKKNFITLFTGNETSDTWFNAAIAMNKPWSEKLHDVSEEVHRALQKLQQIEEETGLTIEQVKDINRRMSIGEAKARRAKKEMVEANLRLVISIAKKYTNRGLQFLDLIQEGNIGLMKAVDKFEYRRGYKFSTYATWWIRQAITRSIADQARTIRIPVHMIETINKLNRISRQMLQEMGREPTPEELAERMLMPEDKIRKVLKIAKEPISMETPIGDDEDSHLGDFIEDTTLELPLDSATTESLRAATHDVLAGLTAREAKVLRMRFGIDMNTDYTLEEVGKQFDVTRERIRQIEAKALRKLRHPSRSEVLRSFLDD

B1: E. coli stringent starvation protein A (EcSspA) (natural protein, UniProt P0ACA3 1-212, looked up)
chain: MAVAANKRSVMTLFSGPTDIYSHQVRIVLAEKGVSFEIEHVEKDNPPQDLIDLNPNQSVPTLVDRELTLWESRIIMEYLDERFPHPPLMPVYPVARGESRLYMHRIEKDWYTLMNTIINGSASEADAARKQLREELLAIAPVFGQKPYFLSDEFSLVDCYLAPLLWRLPQLGIEFSGPGAKELKGYMTRVFERDSFLASLTEAEREMRLGRS
Take B1: the binding result is listed as “binds”.
